In PMC5852461 (Biochemistry, 2018):

How the values were obtained:
[1] = biological target: TatBC–strepII–His6 complex (E. coli) (UniProt P69425); assay: SPR; Biacore T200; TatBC complex captured (about 300 RU) on polyclonal TatB antibodies coupled to a CM5 chip; precursor as analyte at 1.9–30 μM, injected for 3 min; 25 °C; 20 mM MOPS-NaOH, 200 mM NaCl, 1 mM EDTA, 0.01% GDN, pH 8; 1:1 binding model
[2] = biological target: TatBC–His6 complex (GDN-solubilized, purified) (E. coli) (UniProt P69425); assay: ITC; TatBC–His6 (45 μM) in the cell; titrant 150 μM HiPIP or 85 μM TorA signal peptide; 25 °C; 20 mM MOPS-NaOH, 200 mM NaCl, 1 mM EDTA, 0.01% GDN, pH 8; one-site model; molar ratio counted per TatC–His6
[3] = biological target: T1, TatBC–His6 complex (GDN-solubilized, purified) (E. coli, UniProt P69425 1-171; P69423 1-258); assay: as above; details: both partners purified
T1 sequence (looked up) 1: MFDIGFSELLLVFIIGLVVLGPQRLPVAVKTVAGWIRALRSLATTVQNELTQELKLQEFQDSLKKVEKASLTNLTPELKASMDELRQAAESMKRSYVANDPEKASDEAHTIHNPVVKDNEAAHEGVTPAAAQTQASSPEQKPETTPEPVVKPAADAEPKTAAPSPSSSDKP
T1 sequence (looked up) 2: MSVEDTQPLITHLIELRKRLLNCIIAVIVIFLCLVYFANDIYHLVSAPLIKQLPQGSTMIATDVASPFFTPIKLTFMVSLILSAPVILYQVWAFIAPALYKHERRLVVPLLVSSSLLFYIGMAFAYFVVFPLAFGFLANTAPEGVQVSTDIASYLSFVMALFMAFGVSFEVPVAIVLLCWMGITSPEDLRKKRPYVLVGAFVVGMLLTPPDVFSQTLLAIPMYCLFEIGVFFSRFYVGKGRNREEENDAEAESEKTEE

## E. coli CueO precursor, hexahistidine-tagged (from UniProt P36649 29-516) (natural protein)
[1]
  Kd: 4.5 µM
  koff: 0.0018 s⁻¹
  kon: 400 M⁻¹ s⁻¹

## high-potential iron–sulfur protein (HiPIP) precursor from Acidithiobacillus ferrooxidans, His6-tagged (natural protein)
[2]
  Kd: 6 µM
  stoichiometry N (HiPIP per TatC): 0.33

B1: TorA signal peptide (residues 10–36) (peptide)
peptide: SRRRFLAQLGGLTVAGMLGPSLLTPRR
[3]
  Kd: ~0.5 µM
  stoichiometry N: 0.44 peptide per TatC
